From patent publication US20250051437A1 (University of California, published 2025)

Key:
[1] = target: T1, human cadherin-17 (CDH17), endogenously expressed on human cancer cell lines (LS513, SNU-C1, PaTu8988s, … (human, UniProt Q12864 23-832)); test: flow cytometry of the ADC on LS513 cells (CDH17+), 20 µg/ml
T1 construct: also called LS513 (Colon, CDH17+); HPAF2

[2] = target: T1, human cadherin-17 (CDH17), endogenously …; test: indirect flow cytometry (iQue) on LS513 cells (CDH17+), anti-His secondary antibody
Protocol: Bispecific antibodies and scFv fragments were assessed for their binding effect to CDH17 positive cells by an indirect flow cytometry assay iQue® (Sartorius, Gottingen, Germany). The asssays were performed with CDH17 positive LS513 cells or CDH17 negative M202 cells using the primary antibody and fluorochrome-labeled anti-His secondary antibody using the iQue® where FL4-H values acquired by iQue® software were reported.

ADC Binding Activity by Flow Cytometry [1]	FL4-H [2]	Binder
67400		07-0663-h7-VC-PAB-MMAE (antibody, human IgG1, kappa, DAR about 4, V domains shown, MC-VC-PAB-MMAE on free thiols of cysteines from reduced interchain disulfides; positions not given; MC-VC-PAB-MMAE on free thiols of cysteines from reduced interchain disulfides; average 4 MMAE per antibody; positions not given) VH: QVQLVQSGAEVKKPGSSVKISCKVSGYTFTDHTIHWMRQAPGQGLEWIGYIFPRDDIVVYAQKFQGRATLTADKSTSTAYMELSSLRSEDTAVYYCARPPYYYSRNFYFDYWGQGTTLTVSS VL: DIQMTQSPSSLSASVGDRVTITCRVSSIISSSKLHWYQQKPGKAPKPLIYGTSTLASGVPSRFSGSGSGTDYTLTISSLQPEDFATYYCQQWSNYPFTFGQGTKLEIKR
	2.21e+06	07-0653-h43scFv anti-CDH17 scFv (scFv, VL-linker-VH; also called CDH17-653-h43scfv) scFv: DIQLTQSPSSLSASVGDRVTITCRATSSLSYIHWYQQKPGKAPKPLIYEISKLASGVPSRFSGSGSGTDYTLTISSLQPEDFATYYCQQWNYPFTFGQGTKLEIKGGGGSGGGGSGGGGSQVQLVQSGAEVKKPGASVKVSCKASGYTFTDYYMNWVRQAPGQGLEWMGVIYPYSGGIGYAQKFQGRVTMTVDKSTSTAYMELSSLRSEDTAVYYCARGRGDYFGLFDFWGQGTTVTVSSHHHHHH
	2.05e+06	07-0663-h7scFv anti-CDH17 scFv (scFv, VL-linker-VH) scFv: DIQMTQSPSSLSASVGDRVTITCRVSSIISSSKLHWYQQKPGKAPKPLIYGTSTLASGVPSRFSGSGSGTDYTLTISSLQPEDFATYYCQQWSNYPFTFGQGTKLEIKGGGGSGGGGSGGGGSQVQLVQSGAEVKKPGSSVKISCKVSGYTFTDHTIHWMRQAPGQGLEWIGYIFPRDDIVVYAQKFQGRATLTADKSTSTAYMELSSLRSEDTAVYYCARPPYYYSRNFYFDYWGQGTTLTVSSHHHHHH

Second part, the binder before the results:

Binder	ADC Binding Activity by Flow Cytometry [1]	FL4-H [2]
07-0646-h7-VC-PAB-MMAE (antibody, human IgG1, DAR about 4, V domains shown, MC-VC-PAB-MMAE on free thiols of cysteines from reduced interchain disulfides; positions not given; MC-VC-PAB-MMAE on free thiols of cysteines from reduced interchain disulfides; average 4 MMAE per antibody; positions not given, also called CDH17-ADC-646-h7; 07-0646-h7-MMAE) VH: QVQLVQSGAEVKKPGASVKMSCKASGYTFTSYNMHWVRQAPGQGLEWIGAIYPGNGDTSYAQKFQGRATLTVDTSTSTAYMELSSLRSEDTAVYYCARGRGRYFEYWGQGTTLTVSS VL: DIQLTQSPSSLSASVGDRVTMTCRASSSVSSSYLHWYQQKPGKAPKLLIYSTSNLASGVPSRFSGSGSGTDYTLTISSVQPEDFATYYCQQYDSSPSTFGQGTKLEIK	73500	
07-0646-h7scFv anti-CDH17 scFv (scFv, VL-linker-VH; also called CDH17-646-h7scfv; 07-0646-7scFv) scFv: DIQLTQSPSSLSASVGDRVTMTCRASSSVSSSYLHWYQQKPGKAPKLLIYSTSNLASGVPSRFSGSGSGTDYTLTISSVQPEDFATYYCQQYDSSPSTFGQGTKLEIKGGGGSGGGGSGGGGSQVQLVQSGAEVKKPGASVKMSCKASGYTFTSYNMHWVRQAPGQGLEWIGAIYPGNGDTSYAQKFQGRATLTVDTSTSTAYMELSSLRSEDTAVYYCARGRGRYFEYWGQGTTLTVSSHHHHHH		864000
07-0653-h43-VC-PAB-MMAE (antibody, human IgG1, DAR about 4, V domains shown, MC-VC-PAB-MMAE on free thiols of cysteines from reduced interchain disulfides; positions not given; MC-VC-PAB-MMAE on free thiols of cysteines from reduced interchain disulfides; average 4 MMAE per antibody; positions not given, also called CDH17-ADC-653-h43; 07-0653-h43-MMAE) VH: QVQLVQSGAEVKKPGASVKVSCKASGYTFTDYYMNWVRQAPGQGLEWMGVIYPYSGGIGYAQKFQGRVTMTVDKSTSTAYMELSSLRSEDTAVYYCARGRGDYFGLFDFWGQGTTVTVSS VL: DIQLTQSPSSLSASVGDRVTITCRATSSLSYIHWYQQKPGKAPKPLIYEISKLASGVPSRFSGSGSGTDYTLTISSLQPEDFATYYCQQWNYPFTFGQGTKLEIK	35100	
